US9127249B2, “Method for preparing metabolites of atorvastatin using bacterial cytochrome P450 and composition therefor” (INDUSTRY FOUNDATION OF CHONNAM NATIONAL UNIVERSITY, priority 2011, dated 2015)
“Also recorded” adds a separate entry of the source.

Experiments:
[1] = Turnover number of atorvastatin oxidation by CYP102A1 enzymes (HPLC); type: biochemical; details: 80 μM atorvastatin, FIG. 13; for turnover number in oxidation of atorvastatin: 50 pmol enzyme, NADPH-generating system, 37° C., 30 minutes, production of 4-hydroxylated metabolite by HPLC
Method: It was examined whether the wild-type CYP102A1, the CYP102A1 mutants, and the chimeras derived from the CYP1.02A1 mutants may oxidize atorvastatin. Typical steady-state reactions was performed by adding 50 pmol CYP102A1 and 80 μM substrate to 0.25 ml of 100 mM potassium phosphate buffer solution (pH 7.4). In order to initiate reactions, the NADPH-generating system was added thereto (final concentrations: 10 mM glucose 6-phosphate, 0.5 mM NADP^+, and 1 IU […] per ml). A stock solution of atorvastatin (20 mM) was prepared in DMSO and diluted into the enzyme reaction solution to have a final organic solvent concentration of <1% (v/v).
In order to measure human CYP3A4 activity, 50 pmol P450, 100 pmol NADPH-P450 reductase (CPR), 100 pmol cytochrome b5, and 45 μM L-α-dilauroyl-sn-glycero-3-phosphocholine (DLPC) were used instead of 50 pmol CYP102A1. After the reaction solution was reacted for 30 minutes at 37° C., the reaction was terminated with 2-fold of ice-cold dichloromethane.
After centrifugation of the reaction mixture, a supernatant was removed and a solvent was evaporated under nitrogen gas and analyzed using HPLC. A sample (30 ul) was injected into Gemini C18 column (4.6 mm×150 mm, 5 um. Phenomenex. Torrance, Calif.). As a mobile phase A, water containing 0.1% formic acid/acetonitrile (80/20, v/v) was used, and as a mobile phase B, acetonitrile/0.1% formic acid (90/10, v/v) was used. The mobile phase A/B (70/30, v/v) was flowed at a rate of 1 ml·min^−1 using a gradient pump (LC-20AD, Shimadzu, Kyoto, Japan). Elution solutions were detected by UV at 260 nm.
In order to examine whether or not CYP102A1 (P450 BM3) may oxidize atorvastatin, the abilities of the wild-type CYP102A1 (P450 BM3), the mutants thereof, and the chimeras derived from the CYP102A1 mutants to oxidize atorvastatin were measured at a fixed substrate concentration (80 μM).
In order to recognize production rate of atorvastatin oxides by wild-type CYP102A1, CYP102A1 mutants, and chimeras derived from the CYP102A1 mutants, the turnover number was determined in the reaction using 80 μM statin.
The term “turnover number” means the number of substrate molecules that a molecule of an enzyme may convert into products per minute and indicates conversion frequency.
The production rate of 4-hydroxylated metabolite was determined by HPLC as described above.

[2] = Total turnover number (TTN) of atorvastatin oxidation; type: biochemical; details: reacted for 4 hours
Method: In order to recognize production rate of atorvastatin metabolites by the CYP102A1 mutant (#16 in Table 2) and the chimeras (#16A1V2 and #17A1V2) derived from the CYP102A1 mutants, total turnover numbers (TTNs; mol product/mol catalyst) were determined in reactions using total 240 μM atorvastatin.
The term “total turnover number (TTN)” means the number of substrate molecules converted into metabolites by enzymes for the total reaction time.
The total turnover numbers (TTNs) were determined by comparing the results under three conditions. First, the reaction was performed by adding a NADPH-generating system at 37° C. for 1 hour in the presence of 80 μM substrate. In addition, second, after reaction was performed for 1 hour in the presence of 80 μM substrate, 80 μM substrate was additionally added to the reaction mixture, and the reaction was further performed for 1 hour. Finally, after reaction was performed for 1 hour in the presence of 80 μM substrate, 80 μM substrate was additionally added to the reaction mixture, and the reaction was further performed for 1 hour. Then, 80 μM substrate was additionally added to the reaction mixture, and the reaction was further performed for 2 hours.
The production rate of the atorvastatin metabolites was determined using HPLC. […]

Row | Molecule | turnover number in oxidation of atorvastatin [1] | activity compared with human CYP3A4 (turnover number) [1] | activity compared with human CYP3A4 (total turnover number) [2]
1 | Mutant #16: CYP102A1 mutant R47L/F81I/F87V/E143G/L188Q/E267V (SEQ ID NO 18) (protein, CYP102A1 mutant#16) MTIKEMPQPKTFGELKNLPLLNTDKPVQALMKIADELGEIFKFEAPGLVTRYLSSQRLIKEACDESRFDKNLSQALKFVRDIAGDGLVTSWTHEKNWKKAHNILLPSFSQQAMKGYHAMMVDIAVQLVQKWERLNADEHIEVPGDMTRLTLDTIGLCGFNYRFNSFYRDQPHPFITSMVRALDEAMNKQQRANPDDPAYDENKRQFQEDIKVMNDLVDKIIADRKASGEQSDDLLTHMLNGKDPETGEPLDDENIRYQIITFLIAGHVTTSGLLSFALYFLVKNPHVLQKAAEEAARVLVDPVPSYKQVKQLKYVGMVLNEALRLWPTAPAFSLYAKEDTVLGGEYPLEKGDELMVLIPQLHRDKTIWGDDVEEFRPERFENPSAIPQHAFKPFGNGQRACIGQQFALHEATLVLGMMLKHFDFEDHTNYELDIKETLTLKPEGFVVKAKSKKIPLGGIPSPSTEQSAKKVRKKAENAHNTPLLVLYGSNMGTAEGTARDLADIAMSKGFAPQVATLDSHAGNLPREGAVLIVTASYNGHPPDNAKQFVDWLDQASADEVKGVRYSVFGCGDKNWATTYQKVPAFIDETLAAKGAENIADRGEADASDDFEGTYEEWREHMWSDVAAYFNLDIENSEDNKSTLSLQFVDSAADMPLAKMHGAFSTNVVASKELQQPGSARSTRHLEIELPKEASYQEGDHLGVIPRNYEGIVNRVTARFGLDASQQIRLEAEEEKLAHLPLAKTVSVEELLQYVELQDPVTRTQLRAMAAKTVCPPHKVELEALLEKQAYKEQVLAKRLTMLELLEKYPACEMKFSEFIALLPSIRPRYYSISSSPRVDEKQASITVSVVSGEAWSGYGEYKGIASNYLAELQEGDTITCFISTPQSEFTLPKDPETPLIMVGPGTGVAPFRGFVQARKQLKEQGQSLGEAHLYFGCRSPHEDYLYQEELENAQSEGIITLHTAFSRMPNQPKTYVQHVMEQDGKKLIELLDQGAHFYICGDGSQMAPAVEATLMKSYADVHQVSEADARLWLQQLEEKGRYAKDVWAG | high turnover number | – | –
2 | Mutant #17: CYP102A1 mutant R47L/E64G/F81I/F87V/E143G/L188Q/E267V (SEQ ID NO 20) (protein, CYP102A1 mutant #17) MTIKEMPQPKTFGELKNLPLLNTDKPVQALMKIADELGEIFKFEAPGLVTRYLSSQRLIKEACDGSRFDKNLSQALKFVRDIAGDGLVTSWTHEKNWKKAHNILLPSFSQQAMKGYHAMMVDIAVQLVQKWERLNADEHIEVPGDMTRLTLDTIGLCGFNYRFNSFYRDQPHPFITSMVRALDEAMNKQQRANPDDPAYDENKRQFQEDIKVMNDLVDKIIADRKASGEQSDDLLTHMLNGKDPETGEPLDDENIRYQIITFLIAGHVTTSGLLSFALYFLVKNPHVLQKAAEEAARVLVDPVPSYKQVKQLKYVGMVLNEALRLWPTAPAFSLYAKEDTVLGGEYPLEKGDELMVLIPQLHRDKTIWGDDVEEFRPERFENPSAIPQHAFKPFGNGQRACIGQQFALHEATLVLGMMLKHFDFEDHTNYELDIKETLTLKPEGFVVKAKSKKIPLGGIPSPSTEQSAKKVRKKVENAHNTPLLVLYGSNMGTAEGTARDLADIAMSKGFAPQVATLDSHAGNLPREGAVLIVTASYNGHPPDNAKQFVDWLDQASADDVKGVRYSVFGCGDKNWATTYQKVPAFIDETLAAKGAENIADRGEADASDDFEGTYEEWREHMWSDVAAYFNLDIENSEDNKSTLSLQFVDSAADMPLAKMHGAFSANVVASKELQQLGSERSTRHLEIALPKEASYQEGDHLGVIPRNYEGIVNRVTARFGLDASQQIRLEAEEEKLAHLPLGKTVSVEELLQYVELQDPVTRTQLRAMAAKTVCPPHKVELEALLEKQAYKEQVLAKRLTMLELLEKYPACEMEFSEFIALLPSISPRYYSISSSPHVDEKQASITVSVVSGEAWSGYGEYKGIASNYLANLQEGDTITCFVSTPQSGFTLPKDSETPLIMVGPGTGVAPFRGFVQARKQLKEQGQSLGEAHLYFGCRSPHEDYLYQEELENAQNEGIITLHTAFSRVPNQPKTYVQHVMERDGKKLIELLDQGAHFYICGDGSQMAPDVEATLMKSYADVYEVSEADARLWLQQLEEKGRYAKDVWAG | high turnover number | – | –
3 | #16A1V2: chimera: heme domain of mutant #16 fused to V2 reductase domain of Table 4 (SEQ ID NO 22) (protein, chimera #16A1V2) MTIKEMPQPKTFGELKNLPLLNTDKPVQALMKIADELGEIFKFEAPGRVTRYLSSQRLIKEACDESRFDKNLSQALKFVRDFAGDGLFTSWTHEKNWKKAHNILLPSFSQQAMKGYHAMMVDIAVQLVQKWERLNADEHIEVPEDMTRLTLDTIGLCGFNYRFNSFYRDQPHPFITSMVRALDEAMNKLQRANPDDPAYDENKRQFQEDIKVMNDLVDKIIADRKASGEQSDDLLTHMLNGKDPETGEPLDDENIRYQIITFLIAGHETTSGLLSFALYFLVKNPHVLQKAAEEAARVLVDPVPSYKQVKQLKYVGMVLNEALRLWPTAPAFSLYAKEDTVLGGEYPLEKGDELMVLIPQLHRDKTIWGDDVEEFRPERFENPSAIPQHAFKPFGNGQRACIGQQFALHEATLVLGMMLKHFDFEDHTNYELDIKETLTLKPEGFVVKAKSKKIPLGGIPSPSTEQSAKKVRKKVENAHNTPLLVLYGSNMGTAEGTARDLADIAMSKGFAPQVATLDSHAGNLPREGAVLIVTASYNGHPPDNAKQFVDWLDQASADDVKGVRYSVFGCGDKNWATTYQKVPAFIDETLAAKGAENIADRGEADASDDFEGTYEEWREHMWSDVAAYFNLDIENSEDNKSTLSLQFVDSAADMPLAKMHGAFSANVVASKELQQLGSERSTRHLEIALPKEASYQEGDHLGVIPRNYEGIVNRVTARFGLDASQQIRLEAEEEKLAHLPLGKTVSVEELLQYVELQDPVTRTQLRAMAAKTVCPPHKVELEALLEKQAYKEQVLAKRLTMLELLEKYPACEMEFSEFIALLPSISPRYYSISSSPHVDEKQASITVSVVSGEAWSGYGEYKGIASNYLANLQEGDTITCFVSTPQSGFTLPKDSETPLIMVGPGTGVAPFRGFVQARKQLKEQGQSLGEAHLYFGCRSPHEDYLYQEELENAQNEGIITLHTAFSRVPNQPKTYVQHVMERDGKKLIELLDQGAHFYICGDGSQMAPDVEATLMKSYADVYEVSEADARLWLQQLEEKGRYAKDVWAG | high turnover number; also recorded: most excellent turnover number | same activity as that of the human CYP3A4 | activity higher than that of the human CYP3A4
